{"source": "patent US20210155689A1", "about": "(SHANGHAI PHARMAEXPLORER, published 2021)", "binders": {"B1": {"name": "105F1E10 mouse-human chimeric antibody (antibody, V domains shown)", "VH": "EVQLQQSGPELVKPGASVKMSCRASGYTFTDFKMHWMKQSHGKSLEWIGYIAPNNGGTAYNQKFRGKATLTVNESSNTAYMELRSLTSEDSAVYYCVDWDDVDYWGQGTTLTVSS", "VL": "DIKMTQSPSSMYASLGERVTITCKASQDINSYLSWFQQKSGKSPKTLIYRANRLVDGVPSRFSGSGSGQDYSLTISSLEYEDMGIYYCLQYVEFPLTFGAGTKLELK", "notes": "also called mAb009-105F1E10"}, "B2": {"name": "105F1E10 (LAG-3 mouse-human chimeric antibody) (antibody, V domains shown)", "VH": "B1 VH", "VL": "B1 VL"}, "B3": {"name": "405B8H3 (LAG-3 mouse-human chimeric antibody) (antibody, V domains shown)", "VH": "QVQLQQSGAELVRPGASVTLSCKASGYTFTDYEMHWVKQTPVHGLEWIGATDPETGNSAYNQKFKGKAIMTADKSSSTAYMELRSLTSEDSAVYYCISTGWNDWGQGTSLTVSS", "VL": "B1 VL with S40P, N52D, V55L, E81G, V92D, L96Y, A100G, L106I", "notes": "also called mouse-human chimeric antibody 405B8H3"}, "B4": {"name": "405B8H3 mouse-human chimeric antibody (antibody, V domains shown)", "VH": "B3 VH", "VL": "B1 VL with S40P, N52D, V55L, E81G, V92D, L96Y, A100G, L106I", "notes": "also called mAb103-405B8H3"}, "B5": {"name": "409B11E12 (LAG-3 mouse-human chimeric antibody) (antibody, V domains shown)", "VH": "B3 VH with P41T, G56S, N57Y, M70L, S98A", "VL": "B1 VL with I2L, S40P, V55L, V92D, L96Y, A100G, L106I"}, "B6": {"name": "409D4E10 mouse-human chimeric antibody (antibody, V domains shown)", "VH": "B3 VH with Y27N, G56D, S58T, M70L, A72T, S98T, T99S", "VL": "B1 VL with S40P, V55L, V92N, L96Y, A100G, L106I", "notes": "also called mAb112-409D4E10"}, "B7": {"name": "409D4E10 (LAG-3 mouse-human chimeric antibody) (antibody, V domains shown)", "VH": "B3 VH with Y27N, G56D, S58T, M70L, A72T, S98T, T99S", "VL": "B1 VL with S40P, V55L, V92N, L96Y, A100G, L106I"}, "B8": {"name": "409B11E12 mouse-human chimeric antibody (antibody, V domains shown)", "VH": "B3 VH with P41T, G56S, N57Y, M70L, S98A", "VL": "B1 VL with I2L, S40P, V55L, V92D, L96Y, A100G, L106I", "notes": "also called mAb104-409B11E12"}, "B9": {"name": "556F6B8 mouse-human chimeric antibody (antibody, V domains shown)", "VH": "RVQLKQSGPGLVQPSQSLSITCTVSGFSLIKYGVHWVRQSPGEGLEWLGVIWRGGITDYNAAFMSRLSITKDNSKSQVFFKMNSLQADDTAIYYCAKWDGPLAMDYWGQGTSVTVSS", "VL": "DIVMTQSHKFLSTSVGDRVSITCKASQDVGTTVAWYQQKPGQSPKLLIYWASTRHTGVPDRFTGSGSGTDFTLTISNVQSEDLADYFCQQYSSYPYTFGGGTKLEIK", "notes": "also called mAb123-556F6B8; 556F8B8"}, "B10": {"name": "556F6B8 (LAG-3 mouse-human chimeric antibody) (antibody, V domains shown)", "VH": "B9 VH", "VL": "B9 VL", "notes": "also called 556F8B8"}}, "key": {"[1]": {"molecular_target": "T1, LAG-3-hFc protein (human LAG-3 extracellular region with hFc tag) (human, UniProt P18627 23-450)", "T1 construct": "also called hLAG-3-hFc; LAG-3 protein; not shown: human IgG Fc fragment (hFc) of the pCpC vector", "T1 sequence": "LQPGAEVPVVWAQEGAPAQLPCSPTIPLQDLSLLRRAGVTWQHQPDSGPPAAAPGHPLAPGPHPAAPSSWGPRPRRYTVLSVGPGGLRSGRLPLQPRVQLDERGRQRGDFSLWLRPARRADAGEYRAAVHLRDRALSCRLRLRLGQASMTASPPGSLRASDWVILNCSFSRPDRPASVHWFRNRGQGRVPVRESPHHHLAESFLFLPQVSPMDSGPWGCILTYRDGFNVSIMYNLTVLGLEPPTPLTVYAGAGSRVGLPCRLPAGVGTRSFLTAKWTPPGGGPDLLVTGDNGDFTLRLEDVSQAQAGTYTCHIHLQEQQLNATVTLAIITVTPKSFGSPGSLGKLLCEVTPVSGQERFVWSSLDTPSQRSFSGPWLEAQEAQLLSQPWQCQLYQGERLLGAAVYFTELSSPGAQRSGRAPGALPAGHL", "assay": "FACS, inhibition of LAG-3-hFc binding to MHC II on Raji cells, antibody 200.000 nM", "protocol": "The FACS reaction plate incubating the Raji cells was centrifuged to discard the supernatant. The above mixture was added as 100 μl per well to Raji cells and incubated on ice for 1-2 hours. The plate was washed twice with blocking solution (PBS, 2% fetal bovine serum) by centrifugation, added with 100 microliters of fluorescent (Alexa 488)-labeled secondary antibodies per well, and incubated on ice for 1.0 hours. The plate was washed 2-3 times by centrifugation with blocking solution (PBS, 2% fetal bovine serum), added with 100 microliters of PBS per well to suspend cells, and detected using FACS (FACS Calibur, BD) and the results were analyzed. Wherein, the IgG control was murine IgG, and the data in the table is the inhibition rate (%)."}, "[2]": {"molecular_target": "T2, human LAG-3 on cells (HEK293-hLAG-3 stable cell line) (human, UniProt P18627 23-525)", "T2 sequence": "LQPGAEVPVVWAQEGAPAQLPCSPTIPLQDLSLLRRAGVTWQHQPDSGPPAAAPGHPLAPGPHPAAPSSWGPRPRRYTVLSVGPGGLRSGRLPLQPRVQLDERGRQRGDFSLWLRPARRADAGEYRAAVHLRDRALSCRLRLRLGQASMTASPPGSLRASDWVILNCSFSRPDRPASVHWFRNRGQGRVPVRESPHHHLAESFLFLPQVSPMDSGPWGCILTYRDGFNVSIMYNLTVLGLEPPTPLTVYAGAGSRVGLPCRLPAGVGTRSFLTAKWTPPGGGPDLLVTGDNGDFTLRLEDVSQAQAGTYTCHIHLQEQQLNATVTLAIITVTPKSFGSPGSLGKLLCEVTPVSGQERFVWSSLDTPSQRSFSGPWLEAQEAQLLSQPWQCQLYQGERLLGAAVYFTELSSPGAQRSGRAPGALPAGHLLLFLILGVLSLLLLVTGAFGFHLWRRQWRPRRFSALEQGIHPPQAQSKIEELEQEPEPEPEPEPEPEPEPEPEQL", "assay": "FACS, HEK293-hLAG-3, antibody 0.320 nM", "description": "The pIRES plasmid with the monkey-derived full-length gene was transfected into the HEK293 cell line to construct a HEK293 stable cell line containing monkey LAG-3 (herein referred to as HEK293-cLAG-3 stable cell line). The HEK293-hLAG-3 stable cell line and HEK293-cLAG-3 stable cell line were expanded in a T-75 cell culture flask to a 90% confluence. The medium was aspirated, and the cells were washed with HBSS (Hanks' Balanced Salt Solution) 1-2 times, then treated with a enzyme-free cell dissociation fluid (Versene solution: Life technology) and the cells were collected. The cells were washed with HBSS buffer for 1-2 times. After counted, the cells were diluted with HBSS to 1-2×10⁶ cells per ml, added with 1% goat serum blocking solution, incubated on ice for 20-30 minutes, and then washed with HBSS for 2 times by centrifugation. The collected cells were suspended in the FACS buffer (HBSS+1% BSA) to 2×10⁶ cells/ml, added as 100 microliters per well to a 96-well FACS reaction plate, added with 100 microliters per well of the antibody sample to be tested, incubated on ice for 1-2 hours. The plate was washed twice with the FACS buffer by centrifugation, added with 100 microliters of fluorescent (Alexa 488)-labeled secondary antibodies per well, and incubated on ice for 0.5-1.0 hours. The plate was washed 2-3 times with FACS buffer by centrifugation, added with 100 μl fixative solution (4% Paraformaldehyde) per well to suspend the cells. 5-10 minutes later, it was washed 1-2 times with FACS buffer by centrifugation. The cells were suspended with 100 microliters of FACS buffer, FACS (FACSCalibur, BD) was used for detection and the results were analyzed."}, "[3]": {"molecular_target": "T3, mouse LAG-3 protein with hFc tag (mLAG-3-hFc protein) (mouse; human, UniProt Q61790 24-442)", "T3 construct": "Made in HEK293 cells; also called mouse LAG-3 extracellular domain protein; not shown: human IgG Fc fragment (hFc) of the pCpC vector", "T3 sequence": "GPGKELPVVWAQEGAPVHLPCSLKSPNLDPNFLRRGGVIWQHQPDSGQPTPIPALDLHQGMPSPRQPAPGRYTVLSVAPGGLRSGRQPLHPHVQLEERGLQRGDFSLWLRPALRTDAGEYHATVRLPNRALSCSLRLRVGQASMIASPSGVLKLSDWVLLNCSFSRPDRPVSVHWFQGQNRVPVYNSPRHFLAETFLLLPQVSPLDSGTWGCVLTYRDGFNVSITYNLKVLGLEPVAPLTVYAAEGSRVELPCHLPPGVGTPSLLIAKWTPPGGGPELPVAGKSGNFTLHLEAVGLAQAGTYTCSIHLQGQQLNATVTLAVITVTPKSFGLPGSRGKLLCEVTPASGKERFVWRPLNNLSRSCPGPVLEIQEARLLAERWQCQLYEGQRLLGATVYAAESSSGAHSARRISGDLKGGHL", "assay": "ELISA, mLAG-3-hFc coated; 6.6667 nM", "protocol": "The plate was sealed with plastic film and incubated overnight at 4° C. The plate was washed 2 times with the plate washing solution (PBS+0.01% Tween20) on the next day, and added with the blocking solution (PBS+0.01% Tween20+1% BSA) and blocked at room temperature for 1-2 hours. The blocking solution was poured out, and the plate was added with 50-100 μl of the antibody sample to be tested to each well, incubated at 37° C. for 1-2 hours, and washed 2-3 times with a plate washing solution (PBS+0.01% Tween20). HRP (horseradish peroxidase) labeled secondary antibody was added, and the plate was incubated at 37° C. for 1-2 hours, and washed 2-3 times with a plate washing solution (PBS+0.01% Tween20). 100 μl of TMB substrate was added to each well. After incubated at room temperature for 15-30 minutes, the plate was added with 100 μl of stop solution (1.0N HCl) to each well."}}, "note": "Residue numbers refer to the chain shown, from its start.", "data": [{"binder": "B1", "values": [{"measurement": "Inhibition rate (%)", "setting": "[1]", "value": 96, "unit": "%"}, {"measurement": "Mean fluorescence intensity", "setting": "[2]", "value": 10.7}]}, {"binder": "B2", "values": [{"measurement": "OD450", "setting": "[3]", "value": 0.14, "unit": "OD450"}]}, {"binder": "B3", "values": [{"measurement": "OD450", "setting": "[3]", "value": 0.34, "unit": "OD450"}]}, {"binder": "B4", "values": [{"measurement": "Inhibition rate (%)", "setting": "[1]", "value": 95.2, "unit": "%"}, {"measurement": "Mean fluorescence intensity", "setting": "[2]", "value": 17.3}]}, {"binder": "B5", "values": [{"measurement": "OD450", "setting": "[3]", "value": 0.31, "unit": "OD450"}]}, {"binder": "B6", "values": [{"measurement": "Inhibition rate (%)", "setting": "[1]", "value": 95.7, "unit": "%"}, {"measurement": "Mean fluorescence intensity", "setting": "[2]", "value": 15.7}]}, {"binder": "B7", "values": [{"measurement": "OD450", "setting": "[3]", "value": 0.23, "unit": "OD450"}]}, {"binder": "B8", "values": [{"measurement": "Inhibition rate (%)", "setting": "[1]", "value": 94.8, "unit": "%"}, {"measurement": "Mean fluorescence intensity", "setting": "[2]", "value": 16.8}]}, {"binder": "B9", "values": [{"measurement": "Inhibition rate (%)", "setting": "[1]", "value": 95.2, "unit": "%"}, {"measurement": "Mean fluorescence intensity", "setting": "[2]", "value": 14.3}]}, {"binder": "B10", "values": [{"measurement": "OD450", "setting": "[3]", "value": 0.36, "unit": "OD450"}]}]}
